Experimental data published in article PMC9801508 (2022).
Like-named read-outs stand apart in the source and are kept apart here.

B1: BCL11A extended zinc finger domain (exZnF23) (domain or fragment)
chain: PPVKSKSCEFCGKTFKFQSNLVVHRRSHTGEKPYKCNLCDHACTQASKLKRHMKTHMHKSSPMTVKSDDGLSTASSPEPGTSDLVGSASSALKSVVAKFKSENDPNLIPENGD

Tests used:
[1] = target: Q100L
[2] = target: W108R
[3] = target: L81F
[4] = target: V102D
[5] = target: A97V
[6] = target: T1, BCL11A ZnF23 zinc finger domain; test: MST
T1 chain: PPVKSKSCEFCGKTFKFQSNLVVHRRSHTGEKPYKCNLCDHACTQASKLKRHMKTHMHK

[7] = target: B1; test: MST
[8] = target: B1; test: MST
[9] = target: B1

Question: Which results are given for B1?
Answer: Kd [1]: 224 nM; Kd [2]: 56.5 nM; Kd [3]: 1460 nM; Kd [4]: 331 nM; Kd [5]: 75.2 nM

B2: Nanobody wt2D9 (initial hit) (VHH)
VHH: QVQLVESGGGLVQAGGSLRLSCAASGSIFVNNAMGWYRQAPGKERELVAAISASGGSTYYADSVKGRFTISRDNAKNTVYLQMNSLKPEDTAVYYCAADQDVYPYEYWGQGTQVTVSS
Question: Which Kd [6] does the source give for B2 here?
Answer: Its Kd is 32900 nM.

Question: What about the Kd [7] of the same binder?
Answer: The Kd was 1260 nM.

B3: ZF5.3-2D9 (cell-permeant nanobody) (other)
chain: QVQLVESGGGLVQAGGSLRLSCAASGSIFVNNAMGWYRQAPGKERELVAAISASGGSTYYADSVKGRFTISRDNAKNTVYLQMNSLKPEDTAVYYCAADQDGYPYEYWGQGTQVTVSS
Question: B3 was tested. Which Kd [8] did it give?
Answer: Its Kd is 674 nM.

B4: Nanobody 2D9 (2D9_V102G) (VHH)
VHH: QVQLVESGGGLVQAGGSLRLSCAASGSIFVNNAMGWYRQAPGKERELVAAISASGGSTYYADSVKGRFTISRDNAKNTVYLQMNSLKPEDTAVYYCAADQDGYPYEYWGQGTQVTVSS
Question: What does the source list for B4?
Answer: Kd [9]: 343 nM; Kd [8]: 320 nM

B5: Nanobody 2D9_W108L (VHH)
VHH: QVQLVESGGGLVQAGGSLRLSCAASGSIFVNNAMGWYRQAPGKERELVAAISASGGSTYYADSVKGRFTISRDNAKNTVYLQMNSLKPEDTAVYYCAADQDVYPYEYLGQGTQVTVSS
Question: For B5, which Kd [9] is on record?
Answer: Its Kd is 23.4 nM.
